Test results as given in paper PMC12420816 (Nature Communications, 2025).

Biological target: SARS-CoV-2 nsp16 with uncleaved His6-tag (SARS-CoV-2) (UniProt P0DTD1)
Test: native MS

## MERS-CoV nsp7-11 polyprotein, tag-free with authentic termini (domain or fragment)
  percent of signal as complex: < 5%
